In the supplement of paper PMC9732359:
± gives the uncertainty stated by the source.

Assay: protein stability index of a GFP-peptide fusion (yeast GPS) (PSI 1-4); higher = more stable; sorted into four equal gates, so the index is relative within each strain
Procedure, shortened: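 Tiled 17-residue peptides from yeast proteins were fused downstream of GFP on a plasmid that also expresses Cherry, and the pooled library was carried in yeast. Mid-log cultures grown in leucine-free medium were sorted into four equal gates by GFP/Cherry fluorescence ratio. Plasmids from each gate were PCR-amplified and Illumina-sequenced, and reads were assigned to strains by barcodes. Each peptide's protein stability index is the sum, over gates, of the gate's read frequency multiplied by its gate number.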

| Sequence | protein stability index (doa10∆) | protein stability index (pdr5∆) | protein stability index (san1∆) | protein stability index (ubr1∆) |
| --- | --- | --- | --- | --- |
| NTSLNINGWKFESLPLK [SWP82] | 2.88 ± 0.055 | 2.96 ± 0.05 | 2.96 ± 0.053 | 3.06 ± 0.043 |
| IKIKSLEYEISKLKKET [YIL149C/MLP2] | 2.97 ± 0.26 | 2.97 ± 0.096 | 2.99 ± 0.075 | 3.06 ± 0.07 |
| PKEPRLKSQMDTSKALL [SKI6] |  | 3.17 ± 0.18 |  |  |
| LALENGEITKTENEKFI [NUT1] | 3.28 ± 0.15 | 3.45 ± 0.11 | 3.44 ± 0.066 | 3.3 ± 0.14 |
| WEQLKITVVPVVAAAED [QCR6] | 1.89 ± 0.059 | 2.14 ± 0.059 | 1.99 ± 0.099 | 2.03 ± 0.033 |
| IGTINSIVHINSQERVQ [SIR2] | 2.13 ± 0.037 | 2.16 ± 0.034 | 2.12 ± 0.05 | 1.95 ± 0.026 |
| ASDESLLRYGGAFTIAL [RPN2] | 3.39 ± 0.099 | 3.35 ± 0.13 | 3.25 ± 0.098 | 3.34 ± 0.083 |
| IFFNIPLVAHLGLYVGV [YJL039C/NUP192] | 1.42 ± 0.044 | 1.4 ± 0.059 | 1.27 ± 0.1 | 1.33 ± 0.048 |
| AKEKERMLEEAIDHLKA [YIL149C/MLP2] | 3.03 ± 0.05 | 3.12 ± 0.054 | 3.16 ± 0.056 | 3.01 ± 0.049 |
| QHLQQLKMQQQQQQQQQ [GAL11] | 2.21 ± 0.077 | 2.23 ± 0.059 | 2.02 ± 0.12 | 2.09 ± 0.061 |
| RTFRLNECVCTPYNADF [RPO31] | 2.25 ± 0.045 | 2.4 ± 0.049 | 2.77 ± 0.054 | 2.28 ± 0.065 |
| KRVDFSGRTVISPDPNL [RPO31] | 2.44 ± 0.1 | 2.65 ± 0.11 | 3.2 ± 0.14 | 2.83 ± 0.086 |
| VDFQNDLKDILEKVVPL [BRR2] | 3.17 ± 0.18 | 2.88 ± 0.13 | 2.9 ± 0.15 | 2.69 ± 0.066 |
| THEQWSNIQRNVLFLRL [SRP72] | 2.67 ± 0.062 | 2.38 ± 0.062 | 1.96 ± 0.077 | 2.45 ± 0.041 |
| YYNEEGIHILLYSGLII [RPC82] | 2.01 ± 0.1 | 2.04 ± 0.094 | 2.14 ± 0.18 | 2.28 ± 0.037 |
| DEGGAKSLLLNTLNIDN [BRN1] | 3.19 ± 0.077 | 3.16 ± 0.097 | 3.1 ± 0.083 | 3.38 ± 0.075 |
| VDRLKIGGSLARIALRH [RPS25A] | 2.66 ± 0.13 | 2.1 ± 0.07 | 2.01 ± 0.073 | 1.8 ± 0.096 |
| RVWAEYATKRQEAIQQN [PRP8] | 2.37 ± 0.15 | 2.56 ± 0.1 | 2.61 ± 0.1 | 2.2 ± 0.096 |
| KVDATPEESKPINLQNG [YLR335W/NUP2] | 2.9 ± 0.088 | 2.95 ± 0.079 | 2.8 ± 0.06 | 3.21 ± 0.049 |
| VDLWSVGCIFAELIGLQ [SSN3] | 3.18 ± 0.097 | 3.16 ± 0.13 | 3.35 ± 0.036 | 3.17 ± 0.12 |
| YNLLVKISLHKREYLEV [RPN5] | 1.5 ± 0.1 | 1.21 ± 0.12 | 1.34 ± 0.17 | 1.43 ± 0.092 |
| TYSFIDNDRFNVVGKLI [YML103C/NUP188] | 2.34 ± 0.058 | 2.27 ± 0.06 | 2.07 ± 0.072 | 2.16 ± 0.04 |
| KRSMDAEQLGHASKRHK [RPP1] | 2.54 ± 0.058 | 2.79 ± 0.056 | 2.68 ± 0.056 | 2.61 ± 0.054 |
| LMKKACYVGLLTAIPIL [SNU114] | 1.55 ± 0.035 | 1.45 ± 0.036 | 1.53 ± 0.054 | 1.66 ± 0.032 |
| IDYALTAVKQGVTSLGI [PRE8] | 2.27 ± 0.072 | 2.07 ± 0.056 | 1.93 ± 0.071 | 1.62 ± 0.085 |
| IPSSYIKRTDEGGEAEF [ARP7] | 3.4 ± 0.16 | 3.14 ± 0.1 | 3.16 ± 0.11 | 3.45 ± 0.051 |

| Sequence | protein stability index (doa10∆) | protein stability index (pdr5∆) | protein stability index (san1∆) | protein stability index (ubr1∆) |
| --- | --- | --- | --- | --- |
| GRDAFHLRVRVHPFHVL [RPL10] | 1.7 ± 0.061 | 2 ± 0.077 | 1.86 ± 0.11 | 2.09 ± 0.048 |
| SIEVQSLPEFFTNRIPS [SWI3] | 2.64 ± 0.055 | 2.66 ± 0.048 | 2.51 ± 0.064 | 2.61 ± 0.047 |
| QHLRNEHGMNAPSVPEF [SNF2] | 2.86 ± 0.1 | 3.56 ± 0.13 | 2.96 ± 0.08 | 3.09 ± 0.061 |
| REQHIDTICQSIQEQIQ [SNF5] | 3.12 ± 0.068 | 3.25 ± 0.11 | 3.25 ± 0.053 | 3.3 ± 0.068 |
| FKRNAVFVGTIFAGAFV [QCR9] | 1.92 ± 0.064 | 1.58 ± 0.054 | 1.26 ± 0.12 | 1.67 ± 0.051 |
| MYGLTMEWPKDMLKYKE [ITC1] | 3.53 ± 0.17 | 3.1 ± 0.28 |  | 3.07 ± 0.2 |
| APIKKIIERYIKSKADA [PRP8] | 3.11 ± 0.12 | 3.24 ± 0.12 | 2.98 ± 0.079 | 3.13 ± 0.11 |
| KTAQTLDENLNSLSSNL [YJL041W/NSP1] | 2.48 ± 0.04 | 2.29 ± 0.055 | 2.23 ± 0.061 | 2.46 ± 0.037 |
| DMENMADEQKRSTDVWY [ARP7] | 2.35 ± 0.05 | 2.31 ± 0.04 | 2.62 ± 0.053 | 2.55 ± 0.044 |
| LEAKRKVSSAEYYAKKR [RPL16A] | 3.06 ± 0.14 | 3.3 ± 0.11 | 2.86 ± 0.11 | 3.35 ± 0.09 |
| VLNEDDLAFGGEANKHH [RPN5] | 3.25 ± 0.09 | 3.13 ± 0.089 | 3.25 ± 0.057 | 3.48 ± 0.12 |
| DVKSSLSKVFSDVLFEF [YJL039C/NUP192] | 2.82 ± 0.12 | 3.28 ± 0.071 | 2.58 ± 0.1 | 2.89 ± 0.053 |
| YKLTNDEEGIFSRFVDQ [YCG1] | 2.94 ± 0.12 | 2.83 ± 0.13 | 3 ± 0.085 | 2.94 ± 0.057 |
| EKNYDRKEPPATVEECV [PRE6] | 3.3 ± 0.14 | 3.29 ± 0.12 | 3.11 ± 0.079 | 3.3 ± 0.072 |
| PKSSPLKKNNYNSFPHS [SIR4] | 2.79 ± 0.099 | 3.08 ± 0.076 | 3.07 ± 0.046 | 3.06 ± 0.039 |
| SRSNFQGKHTKFENDEL [LRP1] | 3.28 ± 0.091 | 2.99 ± 0.085 | 3.02 ± 0.06 | 3.22 ± 0.064 |
| KEISTRVFNAKDTTGPK [YCS4] | 3.04 ± 0.11 | 2.91 ± 0.13 | 3.21 ± 0.081 | 2.99 ± 0.089 |
| KLLFDHDELDMNECIAD [ESC2] |  |  | 1.03 ± 0.22 |  |
| EMKIGSIESKLEEHKNH [SMC1] | 3.03 ± 0.15 | 3.22 ± 0.16 | 2.96 ± 0.18 | 3.01 ± 0.099 |
| WPQSKNCEYEDPPNEGD [RPB3] | 3.45 ± 0.25 |  |  | 3.2 ± 0.14 |
| AVDHRRQNRNQEIFDAN [RPL13A] | 3.15 ± 0.075 | 3.21 ± 0.058 | 3.23 ± 0.044 | 3.34 ± 0.046 |
| NAIFQMESEEVPLTKRY [PCI8] | 2.81 ± 0.05 | 2.82 ± 0.045 | 2.85 ± 0.038 | 3.08 ± 0.044 |
| SELIRTTLDAEKVFTQG [FAS1] | 3.14 ± 0.067 | 3.16 ± 0.066 | 3.22 ± 0.079 | 3.08 ± 0.07 |
| NFTCNRKILNFKKDLVI [SWI1] | 2.66 ± 0.081 | 2.88 ± 0.063 | 2.46 ± 0.1 | 2.87 ± 0.075 |
| LAEIKKTPLLKQYLSAS [RPL6B] | 1.54 ± 0.038 | 1.55 ± 0.049 | 1.24 ± 0.094 | 1.51 ± 0.036 |
| ISEKDLVPKRCLFESLS [RPO31] | 2.59 ± 0.12 | 3.38 ± 0.15 | 2.94 ± 0.16 | 3.03 ± 0.095 |
